Measured values as given in patent EP0969015A2, “Peptide diagnostic markers for human disorders” (Ortho-Clinical Diagnostics, Inc., priority 1998, dated 2000).

Key:
[1] = Stability of peptides in urine samples; settings: compared with the gluten/casein related peptides; not studied in a systematic manner
[2] = relative to morphine; cited from earlier work

| Substance | stability in urine [1] | opiate activity [2] |
| --- | --- | --- |
| NH4-Tyr AlaPheGluValValGly-COOH (H-YAFEVVG-OH) [deltorphin II] | more stable in urine than the gluten/casein related peptides |  |
| NH4-TyrAlaPheGlyTyrProSer-COOH [dermorphin] | more stable in urine than the gluten/casein related peptides | 1000 times |
